# Measured values from the nanobody polyreactivity screen of Harvey et al. (2022).
# Assay: yeast display, Sf9 membrane polyspecificity reagent, FACS + sequencing; frameworks hold sequencing errors
# Method in brief: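 Synthetic nanobody libraries on Saccharomyces cerevisiae BJ5465 were galactose-induced for 36–48 hours, stained 1 hour at 4 °C with 10% biotinylated, detergent-solubilized Sf9 membrane reagent and enriched on streptavidin microbeads. FACS then separated cells into low and high (top ~1%) gates by anti-HA (expression) and streptavidin (reagent binding) fluorescence. Genes were colony-PCR amplified, MiSeq 2 × 250 sequenced and CDR-length filtered. A clone's polyreactivity label is that of its gate of origin.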
row,Sequence,polyreactivity (PSR sort gate)
1,QVQRVESGGGLVQAGGSLRLSCAASGSIVQQYAMGWYRQAPGKERELVAAISYSGGTTYYADSVKGRFTISRDNAKTTVYLQMNSLKPEDTAVYYCAAYYPSGSYDYYWGQGTQVTVSS,low polyreactivity
2,QVQRVESGGGLVQAGGSLRLSCAASGSTFSIYAMGLYRQEPGKERELVAAISFSDDSTYYADSVKGRFTISRDNAKNTVYLQMNSLNPEDTEVYYCAAEGYWGEPFDYDGALEYWGQGTQVTVSS,high polyreactivity
3,QVQRVESGGGLVQAGGSLRLSCADSGGTFGSYAKGCSSQAPGQDRELVDAIDYSGADTYYADSVKGRFTISRDNAKNTVYLQMNSLKREDTAVFSCNADPLPYDGFYDYDYWGQGTQVTVSS,low polyreactivity
4,QVQRVESGGGLVQAGGSLRLSSAGSGSIFNIYTMGWYRQAPGKERELVAAISYGGGSTYADSVKGRLTISRDNAKNTVYLQMNSLKPEDTAVYYCNAKRTYHWRWYQYDYWGQGTQVTVSS,high polyreactivity
5,QVQRVESGGGLVQAGGSLRLSSASSGFTFRSYAMGWYRQEPGKERELVAVIASSGGSTYYADSVKGRFTFSRDNAKNTVYLQMNSLKPEDTAVYYCNRRPATRAYLYDYWGQGTQVTVSW,high polyreactivity
6,QVQRVESGGGLVQAGGSLRLTSAASGSTFGTNAMGWYRQAPGTERELVATISKSGGSTYYADSVKGRFTISRDNAKNTVYLQMNSLKPEANAVYYCARRYRDYGRYGYWGQGTEVTVSS,high polyreactivity
7,QVQRVESGGGLVQAGGTLRLSCAASGRIFWYNAMGWSRQAPGKERELVAVISTRGGRTYYADSVKGRFTISRDNAKNTVYLQMNSLKPEDTAVYYCAAEFLNKAVGGVTSIYDSWGQGTQVTVSS,low polyreactivity
8,QVQRVESGGGLVQARASLRLSCAASGSIFPHYAMGWYRQAPGKERDLVATIRSRSGSTYYADSVKGRFTISRDNAKNTVYLQMNSLKPEDTAVYYCAARYYKERYWGQGTQVTVSS,low polyreactivity
9,QVQRVESGGGLVQEGRSLRLSCAASGFIFSVYAMGWYRQAQGKERELVAAMTWNGGRTYYADSVKGRFRISRDHAKNTVYLQMNSVKPEDTAVYYCAADSRGALNSVYRYGSIVEGDYWGQGTQVTVSS,low polyreactivity
10,QVQRVESGGRLVQAGGSLRLSCAACGSTFPGNAMGWYRQAPGKERELVAAISSSGGSTDYADSVKGRFTCSRDNAKNTVYLQLNRLKPEDTAVYSCATKYRFCTYRDIAYPYDYWGQGPQVTVSS,low polyreactivity
11,QVQRVESGGRLVQAGGSLRLSCAASGSTFPSYAMGWSRQAPGKERELVAAISWSGGTTYYADSVKGRFTISRDNAKNTVYLQMNSLKPEDTAVYYCAAGGRRQAYGRRDYWGQGNQVTVSS,high polyreactivity
12,QVQRVESGVGIVQAGGSLRLSSAASGFIFSRYAMGWYRQAPGNERQLVAAIRFSGSITYYADSVKGRFTISRDNAKNTVYLQMNSLKPEDTAVYYCAAPLTFFKRVYYWGQGTQLTVSS,high polyreactivity
13,QVQRVETGGGLVQAGGSLRLSCAASGRTIRVYAMGWYRQPPGKETELVPAISGSGGSTYYADSVKGRFTISRDNAKNTVYLQMNSLKPEDTAVYFCYAASWTFQTTPKYDYWGQGTLVTVSS,high polyreactivity
14,QVQVVDSGGGLVQAGGSLRLSCAASGSIFYVYAMGWYRQAPGKVWEFVAAIRWFSGSTYYADSVKWRYTISRDNAKNTVYLQMNSLKPEDTAVYYCAARKYKQGRFKYDYWGQGTQVTVSS,high polyreactivity
15,QVQVVESGGGIVKAGGSLRLSCAPSGSTFYYYAMGWYRQAPRKERELVATISWSGDSTYADSVKGRFTISRDNSKNTVYLQLTSLKPEDTAVYYCATCGDWWGFRYDYWGQCTQVTVSS,low polyreactivity
16,QVQVVESGGGLVHAVCSLRLSCAASGRIFSTYALGLYRPAPGKERELVAAISSSGARTYYADSVKGRFTISRDNAKNNVYLQMNSLKPEDTSVYYCAAPPYNRPGYGYDYWGQGTQVTVSS,high polyreactivity
